Test results as given in paper PMC1636418.
Where a chain is given by its changes, count along the chain named.

Tests used:
Assay in all cases: EMSA
ZαβADAR1 = target: T1, ZαβADAR1 (Homo sapiens, UniProt P55265 133-368)
T1 sequence: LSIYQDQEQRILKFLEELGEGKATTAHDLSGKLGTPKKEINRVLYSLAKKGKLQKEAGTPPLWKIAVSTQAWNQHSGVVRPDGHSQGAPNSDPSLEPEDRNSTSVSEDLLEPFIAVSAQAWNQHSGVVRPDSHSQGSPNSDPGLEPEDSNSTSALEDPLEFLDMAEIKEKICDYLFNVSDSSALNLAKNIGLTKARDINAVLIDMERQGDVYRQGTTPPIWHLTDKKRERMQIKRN

ZαβZBP1 N141D/Y145A = target: T2, ZαβZBP1 N141D/Y145A (Homo sapiens, UniProt Q9H171 4-167, N141D;Y145A)
T2 sequence: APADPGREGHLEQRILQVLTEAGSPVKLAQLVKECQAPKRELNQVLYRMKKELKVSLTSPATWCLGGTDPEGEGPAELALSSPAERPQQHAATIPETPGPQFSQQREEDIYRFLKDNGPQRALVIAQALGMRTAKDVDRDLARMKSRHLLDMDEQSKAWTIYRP

ZαβZBP1 N46D = target: T3, ZαβZBP1 N46D (Homo sapiens, UniProt Q9H171 4-167, N46D)
T3 sequence: T2 sequence with N43D, D138N, A142Y

ZαβZBP1 Y50A = target: T4, ZαβZBP1 Y50A (Homo sapiens, UniProt Q9H171 4-167, Y50A)
T4 sequence: T2 sequence with Y47A, D138N, A142Y

ZαβZBP1 N46D/Y50A = target: T5, ZαβZBP1 N46D/Y50A (Homo sapiens, UniProt Q9H171 4-167, N46D;Y50A)
T5 sequence: T2 sequence with N43D, Y47A, D138N, A142Y

[1] = target: T6, ZαβZBP1 N46D/Y50A/N141D/Y145A (Homo sapiens, UniProt Q9H171 4-167, N46D;Y50A;N141D;Y145A)
T6 sequence: T2 sequence with N43D, Y47A

ZαβZBP1 = target: T7, ZαβZBP1 (Homo sapiens, UniProt Q9H171 4-167)
T7 sequence: T2 sequence with D138N, A142Y

ZαZBP1 = target: T8, ZαZBP1 (Homo sapiens, UniProt Q9H171 4-86)
T8 sequence: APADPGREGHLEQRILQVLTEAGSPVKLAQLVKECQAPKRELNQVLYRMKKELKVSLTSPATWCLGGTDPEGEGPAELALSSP

ZβZBP1 = target: T9, ZβZBP1 (Homo sapiens, UniProt Q9H171 4-10+87-167, internal_change)
T9 sequence: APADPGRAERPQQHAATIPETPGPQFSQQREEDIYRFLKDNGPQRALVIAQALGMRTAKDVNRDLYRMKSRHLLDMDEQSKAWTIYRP

B1: (dC-dG)20 (dsDNA)
DNA 1: CGCGCGCGCGCGCGCGCGCGCGCGCGCGCGCGCGCGCGCG
DNA 2: B1 DNA 1
Does B1 bind (ZαβADAR1)?
Result: binds

Does B1 bind (ZαβZBP1 N141D/Y145A)?
Result: no binding

Does B1 bind (ZαβZBP1 N46D)?
Result: no binding

Does B1 bind (ZαβZBP1 Y50A)?
Result: no binding

Does B1 bind (ZαβZBP1 N46D/Y50A)?
Result: no binding

Does B1 bind [1]?
Result: no binding

Does B1 bind (ZαβZBP1)?
Result: binds

Does B1 bind (ZαZBP1)?
Result: binds

Does B1 bind (ZβZBP1)?
Result: binds
